Here are results for 19 molecules from publication PMC314469, “Protein Interaction Networks by Proteome Peptide Scanning” (PLoS Biology, 2004).

What all share (experiment): SPOT array
In assay [1] the target is T1, Boi2 SH3 (BOI2_YEAST), P39969.
T1 chain: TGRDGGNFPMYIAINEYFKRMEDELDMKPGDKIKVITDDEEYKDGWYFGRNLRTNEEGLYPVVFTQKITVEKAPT

The target of assay [2] is T2, Rvs167 SH3 (RV167_YEAST), P39743.
T2 chain: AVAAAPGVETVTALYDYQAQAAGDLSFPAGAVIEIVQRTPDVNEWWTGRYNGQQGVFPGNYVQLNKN

Assay [3] deals with T3, Yhr016c SH3 (YSC84_YEAST), P32793.
T3 chain: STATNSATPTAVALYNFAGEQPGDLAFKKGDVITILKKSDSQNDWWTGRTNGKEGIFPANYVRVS

Assay [4] deals with T4, Boi1 SH3 (BOI1_YEAST), P38041.
T4 chain: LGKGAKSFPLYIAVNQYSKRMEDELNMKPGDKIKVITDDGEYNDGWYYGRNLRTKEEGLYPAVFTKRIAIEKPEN

In assay [5] the target is T5, Yfr024 SH3 (LSB3_YEAST), P43603.
T5 chain: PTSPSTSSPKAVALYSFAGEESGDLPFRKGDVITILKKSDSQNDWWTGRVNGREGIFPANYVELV

With LNSPDLPERTKLRN [YDL225W 445-458], the normalised SPOT signal, Boehringer light units (BLU); mean over the file's lines of this peptide in assay [1] came out at 31.1; in assay [2], 23300; in assay [3], 59600; in assay [4] it was 6110; in assay [5], 35600.

Consider LIDPSTPDKAAKKD [YGR083C 353-366], for which the normalised SPOT signal, Boehringer light units (BLU); mean over the file's lines of this peptide in assay [1] was found to be 19.8; in assay [2], 28.2; in assay [3], 302; in assay [4], 24.8; in assay [5], 0.

For the molecule LHYPYGPARNPSYI [YJR126C 313-326], the normalised SPOT signal, Boehringer light units (BLU); mean over the file's lines of this peptide was 31.8 in assay [1]; 56.4 in assay [2]; 142 in assay [3]; 146 in assay [4]; 277 in assay [5].

For the molecule LIMPIYPYRLVSTI [YIL173W 525-538], the normalised SPOT signal, Boehringer light units (BLU); mean over the file's lines of this peptide in assay [1] amounted to 560; in assay [2] it was 189; in assay [3] it was 973; in assay [4] it was 95.2; in assay [5] it was 3060.

For LLAPNSPLKNTKSV [YOR124C 391-404], the normalised SPOT signal, Boehringer light units (BLU); mean over the file's lines of this peptide in assay [1] amounted to 10.2; in assay [2] it was 26.4; in assay [3], 53.5; in assay [4], 57.9; in assay [5], 94.9.

Turning to LIPPLHPLKKQHPK [YIL089W 44-57], the normalised SPOT signal, Boehringer light units (BLU); mean over the file's lines of this peptide in assay [1] was found to be 17.8; in assay [2] it was 35.3; in assay [3], 366; in assay [4], 10.8; in assay [5], 1420.

LKRPILPSKNMDHT [YOR191W 344-357]: the normalised SPOT signal, Boehringer light units (BLU); mean over the file's lines of this peptide stood at 45.2 in assay [1]; 141 in assay [2]; 251 in assay [3]; 133 in assay [4]; 6130 in assay [5].

Turning to LLPPTDPFRRKHEQ [YHR148W 63-76], the normalised SPOT signal, Boehringer light units (BLU); mean over the file's lines of this peptide in assay [1] is 15; in assay [2] it was 49.4; in assay [3], 224; in assay [4], 56.5; in assay [5] it was 314.

Consider LGAPFSPRRKDKLV [YJL172W 363-376], for which the normalised SPOT signal, Boehringer light units (BLU); mean over the file's lines of this peptide turned out to be 25.3 in assay [1]; 59.5 in assay [2]; 250 in assay [3]; 140 in assay [4]; 1510 in assay [5].

Consider LMPPDSPPRMTENT [YBR275C 1790-1803], for which the normalised SPOT signal, Boehringer light units (BLU); mean over the file's lines of this peptide is 162 in assay [1]; 1.2 in assay [2]; 485 in assay [3]; 47.3 in assay [4]; 1520 in assay [5].

For LIPPGFPTKNYPPG [YCL010C 185-198], the normalised SPOT signal, Boehringer light units (BLU); mean over the file's lines of this peptide came to 40.7 in assay [1]; 0 in assay [2]; 323 in assay [3]; 40.1 in assay [4]; 85.1 in assay [5].

For LHDPLVPIKSYGLT [YMR185W 739-752], the normalised SPOT signal, Boehringer light units (BLU); mean over the file's lines of this peptide in assay [1] amounted to 13.6; in assay [2], 47.9; in assay [3] it was 227; in assay [4] it was 0; in assay [5], 126.

As to LGEPFDPNKHEATF [YOR232W 175-188], the normalised SPOT signal, Boehringer light units (BLU); mean over the file's lines of this peptide worked out at 73.9 in assay [1]; 10.7 in assay [2]; 161 in assay [3]; 98.8 in assay [4]; 68.3 in assay [5].

As to LIQPTAPIRDPTRF [YIR029W 48-61], the normalised SPOT signal, Boehringer light units (BLU); mean over the file's lines of this peptide stood at 68.8 in assay [1]; 75.5 in assay [2]; 286 in assay [3]; 30300 in assay [4]; 541 in assay [5].

Take LPAPHRPEKYKERF [YGR154C 67-80]: the normalised SPOT signal, Boehringer light units (BLU); mean over the file's lines of this peptide in assay [1] amounted to 35.8; in assay [2], 28.8; in assay [3] it was 171; in assay [4] it was 89.9; in assay [5] it was 1230.

On to LHGPFKPVKSSNGE [YER134C 25-38], for which the normalised SPOT signal, Boehringer light units (BLU); mean over the file's lines of this peptide was 77.4 in assay [1]; 107 in assay [2]; 150 in assay [3]; 103 in assay [4]; 288 in assay [5].

As for LLKPETPSKRLVIR [YGL216W 249-262], the normalised SPOT signal, Boehringer light units (BLU); mean over the file's lines of this peptide in assay [1] was 13.3; in assay [2], 25.7; in assay [3], 59.7; in assay [4], 229; in assay [5], 1480.

With LKYPYFPTKMSYLQ [YNL059C 229-242], the normalised SPOT signal, Boehringer light units (BLU); mean over the file's lines of this peptide in assay [1] is 99; in assay [2], 39.3; in assay [3], 184; in assay [4] it was 91.9; in assay [5] it was 296.

As for LHVPRNPSKSRRGS [YLR310C 161-174], the normalised SPOT signal, Boehringer light units (BLU); mean over the file's lines of this peptide in assay [1] was 234; in assay [2], 129; in assay [3] it was 211; in assay [4], 153; in assay [5], 1260.
